Blank lines part the entries; values can stand above or below the binder they belong to. Where no end group is shown, it is not given here. [ ]: non-standard residue; d: D form. pGlu = O=C1CC[C@@H](C(=O)O)N1
Columns and labels:
[1] = target: MAb 458-5; assay: MAb inhibition ELISA; soluble inhibitor of MAb binding to the coated C-terminal target peptide-BSA
[2] = target: MAb 458-2; assay: as above
[3] = target: MAb 458-3; assay: as above
[4] = target: MAb 458-1; assay: as above
[5] = target: MAb 458-4; assay: as above
[6] = target: MAb 400-4; assay: MAb inhibition ELISA; soluble inhibitor of MAb binding to coated hG17(1-9)-“Ala”-BSA
[7] = target: MAb 400-2; assay: as above
[8] = target: MAb 400-1; assay: as above
[9] = target: MAb 400-3; assay: as above
[10] = target: MAb 445-2; assay: MAb inhibition ELISA; soluble inhibitor of MAb binding to coated hG34(16-34)-Gly 35-BSA
[11] = target: MAb 445-1; assay: as above
[12] = target: MAb 401-2; assay: MAb inhibition ELISA; soluble inhibitor of MAb 401-2 binding to the coated G34 N-terminal target antigen

% Inhibition at 10 nmol/ml (250 pmoles/well) [1]: 91.9% | % Inhibition at 10 nmol/ml (250 pmoles/well) [2]: 86% | % Inhibition at 10 nmol/ml (250 pmoles/well) [3]: 92.4% | % Inhibition at 10 nmol/ml (250 pmoles/well) [4]: 94.3% | % Inhibition at 10 nmol/ml (250 pmoles/well) [5]: 88.4% | IC50 [6]: 620 nM | IC50 [7]: 85 nM | IC50 [8]: 2030 nM | IC50 [9]: 1080 nM
Binder: EGPWLEEEEEAYGWMDF (N-terminal pyroglutamic acid (pGlu); C-terminal Phe-NH2 (amide)) [human gastrin-17 (G17), mature amidated form]

% Inhibition at 10 nmol/ml (250 pmoles/well) [4]: 2.1% | IC50 [6]: 699 nM | IC50 [7]: 77 nM | IC50 [8]: 1790 nM | IC50 [9]: 1390 nM | IC50 [10]: 5000 nM | IC50 [11]: 700 nM
Binder: [pGlu]GPWLEEEEEAYGWMDFG [human glycine-extended gastrin-17 (G17-Gly)]

% Inhibition at 10 nmol/ml (250 pmoles/well) [1]: 91.5% | % Inhibition at 10 nmol/ml (250 pmoles/well) [2]: 84.5% | % Inhibition at 10 nmol/ml (250 pmoles/well) [3]: 90.7% | % Inhibition at 10 nmol/ml (250 pmoles/well) [4]: 93.5% | % Inhibition at 10 nmol/ml (250 pmoles/well) [5]: 86.7% | IC50 [12]: 700 nM
B1: human gastrin-34 (G34), amidated (peptide)
peptide: [pGlu]LGPQGPPHLVADPSKKEGPWLEEEEEAYGWMDF-NH2
SMILES: CSCC[C@H](NC(=O)[C@H](Cc1c[nH]c2ccccc12)NC(=O)CNC(=O)[C@H](Cc1ccc(O)cc1)NC(=O)[C@H](C)NC(=O)[C@H](CCC(=O)O)NC(=O)[C@H](CCC(=O)O)NC(=O)[C@H](CCC(=O)O)NC(=O)[C@H](CCC(=O)O)NC(=O)[C@H](CCC(=O)O)NC(=O)[C@H](CC(C)C)NC(=O)[C@H](Cc1c[nH]c2ccccc12)NC(=O)[C@@H]1CCCN1C(=O)CNC(=O)[C@H](CCC(=O)O)NC(=O)[C@H](CCCCN)NC(=O)[C@H](CCCCN)NC(=O)[C@H](CO)NC(=O)[C@@H]1CCCN1C(=O)[C@H](CC(=O)O)NC(=O)[C@H](C)NC(=O)[C@@H](NC(=O)[C@H](CC(C)C)NC(=O)[C@H](Cc1c[nH]cn1)NC(=O)[C@@H]1CCCN1C(=O)[C@@H]1CCCN1C(=O)CNC(=O)[C@H](CCC(N)=O)NC(=O)[C@@H]1CCCN1C(=O)CNC(=O)[C@H](CC(C)C)NC(=O)[C@@H]1CCC(=O)N1)C(C)C)C(=O)N[C@@H](CC(=O)O)C(=O)N[C@@H](Cc1ccccc1)C(N)=O

More lines, now with the values behind:

Binder: DYMGWMDF-NH2 [CCK (26-33) unsulfated]
% Inhibition at 10 nmol/ml (250 pmoles/well) [1]: 92% | % Inhibition at 10 nmol/ml (250 pmoles/well) [2]: 84.8% | % Inhibition at 10 nmol/ml (250 pmoles/well) [3]: 84.8% | % Inhibition at 10 nmol/ml (250 pmoles/well) [4]: 93.8% | % Inhibition at 10 nmol/ml (250 pmoles/well) [5]: 83.4%

Binder: EGPWLEKEEAAYGWMDF (ends and bridges not checked) [equine G17]
IC50 [6]: 1690 nM | IC50 [7]: 86 nM | IC50 [8]: 1650 nM | IC50 [9]: 120 nM

Binder: [pGlu]GPWLEEEE (ends and bridges not checked) [hG17(1-9) N terminus peptide]
% Inhibition at 10 nmol/ml (250 pmoles/well) [3]: 1.2%

Binder: CPPPPSSYGWMDFG [hG17 (12-17)-Gly18 peptide (immunogen peptide …)]
IC50 [10]: 13000 nM | IC50 [11]: 4000 nM
